This is an account of results in publication PMC2800207.

Some targets named below: NusB (Escherichia coli, UniProt P0A780 1-139); NusB D118N (NusB101) (Escherichia coli, UniProt P0A780 1-139, D118N); NusB K2E (Escherichia coli, UniProt P0A780 1-139, K2E); NusB D118A (Escherichia coli, UniProt P0A780 1-139, D118A); NusB D118K (Escherichia coli, UniProt P0A780 1-139, D118K); NusB D118R (Escherichia coli, UniProt P0A780 1-139, D118R).
What all share (test): fluorescence anisotropy

In the data set with NusB, CGCUAUUACACAUUCCA (ssRNA) [nutR BoxA16-spacer (C38A)] showed a Kd of 5.1 ± 1.4 µM.

Consider AUAGCGGCCACAUUCCA (ssRNA) [nutR BoxA69-spacer (boxA transversion)], for which the binding result with NusB D118N (NusB101) and with NusB was “no binding” each time.

With CGCUCUUA (ssRNA) [nutR BoxA], the figures for the dissociation constant Kd with NusB D118N (NusB101) and in the data set with NusB were 0.29 ± 0.015 µM and 1.6 ± 0.1 µM, respectively.

Consider CGCUCUUAAAAAUUAA (ssRNA) [nutL BoxA-spacer], for which the results for the dissociation constant (Kd) with NusB and in the data set with NusB K2E were 2.2 ± 0.8 µM and 5.1 µM, respectively.

For CACUGCUCUUUAACAAUUA (ssRNA) [rrnG BoxA-spacer], the dissociation constant Kd amounted to 0.024 ± 0.004 µM with NusB D118N (NusB101), 0.13 ± 0.02 µM in the data set with NusB and 3.6 µM with NusB K2E.

In turn, CGCUCGUACACAUUCCA (ssRNA) [nutR BoxA(U39G)-spacer] registered a Kd with NusB of 1.6 ± 0.8 µM.

As to AAAAUUAA (ssRNA) [nutL spacer], the binding result with NusB D118N (NusB101) and with NusB was “no binding” each time.

Turning to UGCUCUUUA (ssRNA) [rrnG BoxA], the figures for the Kd with NusB D118N (NusB101) and in the data set with NusB were 0.05 ± 0.015 µM and 0.2 ± 0.01 µM, respectively.

Turning to CACAUUCCA (ssRNA) [nutR spacer], the binding result in the data set with NusB D118N (NusB101) and with NusB was “no binding” each time.

With CGCUCUUACACAUUCCA (ssRNA) [nutR BoxA-spacer], the binding result in the data set with NusB D118A, in the data set with NusB D118K and with NusB D118R was “no binding” in each case.
